Reference: patent EP1106183A2

How the values were obtained:
[1] = molecular target: human ErbB2 on BT474 human breast tumor cells (human) (UniProt P04626); experiment: cell-based or functional assay
[2] = molecular target: human ErbB2 on BT474 human breast tumor cells (human) (UniProt P04626); experiment: Scatchard analysis; 125I-labelled antibody on BT474 cell monolayers, 4 h on ice

Row | Substance | % apoptosis of BT474 cell population (Hoechst 33342 cell cycle analysis, 3 days) [1] [%] | proportion of S-phase cells (BT474, 3 days) [1] [%] | Kd [2] [nM]
1 | anti-ErbB2 IgG1κ murine monoclonal antibody 4D5 | 41.9 | 5.4 | 6.5
2 | anti-ErbB2 IgG1κ murine monoclonal antibody 7C2 | 60.5 | 64.9 | –
